According to article PMC6712834, “SUMOylation regulates USP5-Cav3.2 calcium channel interactions” (Molecular Brain, 2019):

Target: T1, Cav3.2-GFP tagged calcium channel (human, UniProt O95180 1-2353)
T1 construct: also called Cav3.2 T-type calcium channel; source: tsA-201 cells, transfected (lipofectamine 2000), in lysate; not shown: GFP, C-terminal, kept
Assay: co-IP; tsA-201 cells co-expressing Cav3.2-GFP and mCherry-USP5 (WT or K113R); lysed in modified RIPA buffer (50 mM Tris, 100 mM NaCl, 0.2% Triton X-100, 0.2% NP-40, 10 mM EDTA, pH 7.5); Cav3.2-GFP precipitated with anti-GFP antibody and Protein G/A beads overnight at 4 °C; blot probed with mCherry antibody; densitometry
Settings: partners not purified

T1 sequence (O95180 whole entry): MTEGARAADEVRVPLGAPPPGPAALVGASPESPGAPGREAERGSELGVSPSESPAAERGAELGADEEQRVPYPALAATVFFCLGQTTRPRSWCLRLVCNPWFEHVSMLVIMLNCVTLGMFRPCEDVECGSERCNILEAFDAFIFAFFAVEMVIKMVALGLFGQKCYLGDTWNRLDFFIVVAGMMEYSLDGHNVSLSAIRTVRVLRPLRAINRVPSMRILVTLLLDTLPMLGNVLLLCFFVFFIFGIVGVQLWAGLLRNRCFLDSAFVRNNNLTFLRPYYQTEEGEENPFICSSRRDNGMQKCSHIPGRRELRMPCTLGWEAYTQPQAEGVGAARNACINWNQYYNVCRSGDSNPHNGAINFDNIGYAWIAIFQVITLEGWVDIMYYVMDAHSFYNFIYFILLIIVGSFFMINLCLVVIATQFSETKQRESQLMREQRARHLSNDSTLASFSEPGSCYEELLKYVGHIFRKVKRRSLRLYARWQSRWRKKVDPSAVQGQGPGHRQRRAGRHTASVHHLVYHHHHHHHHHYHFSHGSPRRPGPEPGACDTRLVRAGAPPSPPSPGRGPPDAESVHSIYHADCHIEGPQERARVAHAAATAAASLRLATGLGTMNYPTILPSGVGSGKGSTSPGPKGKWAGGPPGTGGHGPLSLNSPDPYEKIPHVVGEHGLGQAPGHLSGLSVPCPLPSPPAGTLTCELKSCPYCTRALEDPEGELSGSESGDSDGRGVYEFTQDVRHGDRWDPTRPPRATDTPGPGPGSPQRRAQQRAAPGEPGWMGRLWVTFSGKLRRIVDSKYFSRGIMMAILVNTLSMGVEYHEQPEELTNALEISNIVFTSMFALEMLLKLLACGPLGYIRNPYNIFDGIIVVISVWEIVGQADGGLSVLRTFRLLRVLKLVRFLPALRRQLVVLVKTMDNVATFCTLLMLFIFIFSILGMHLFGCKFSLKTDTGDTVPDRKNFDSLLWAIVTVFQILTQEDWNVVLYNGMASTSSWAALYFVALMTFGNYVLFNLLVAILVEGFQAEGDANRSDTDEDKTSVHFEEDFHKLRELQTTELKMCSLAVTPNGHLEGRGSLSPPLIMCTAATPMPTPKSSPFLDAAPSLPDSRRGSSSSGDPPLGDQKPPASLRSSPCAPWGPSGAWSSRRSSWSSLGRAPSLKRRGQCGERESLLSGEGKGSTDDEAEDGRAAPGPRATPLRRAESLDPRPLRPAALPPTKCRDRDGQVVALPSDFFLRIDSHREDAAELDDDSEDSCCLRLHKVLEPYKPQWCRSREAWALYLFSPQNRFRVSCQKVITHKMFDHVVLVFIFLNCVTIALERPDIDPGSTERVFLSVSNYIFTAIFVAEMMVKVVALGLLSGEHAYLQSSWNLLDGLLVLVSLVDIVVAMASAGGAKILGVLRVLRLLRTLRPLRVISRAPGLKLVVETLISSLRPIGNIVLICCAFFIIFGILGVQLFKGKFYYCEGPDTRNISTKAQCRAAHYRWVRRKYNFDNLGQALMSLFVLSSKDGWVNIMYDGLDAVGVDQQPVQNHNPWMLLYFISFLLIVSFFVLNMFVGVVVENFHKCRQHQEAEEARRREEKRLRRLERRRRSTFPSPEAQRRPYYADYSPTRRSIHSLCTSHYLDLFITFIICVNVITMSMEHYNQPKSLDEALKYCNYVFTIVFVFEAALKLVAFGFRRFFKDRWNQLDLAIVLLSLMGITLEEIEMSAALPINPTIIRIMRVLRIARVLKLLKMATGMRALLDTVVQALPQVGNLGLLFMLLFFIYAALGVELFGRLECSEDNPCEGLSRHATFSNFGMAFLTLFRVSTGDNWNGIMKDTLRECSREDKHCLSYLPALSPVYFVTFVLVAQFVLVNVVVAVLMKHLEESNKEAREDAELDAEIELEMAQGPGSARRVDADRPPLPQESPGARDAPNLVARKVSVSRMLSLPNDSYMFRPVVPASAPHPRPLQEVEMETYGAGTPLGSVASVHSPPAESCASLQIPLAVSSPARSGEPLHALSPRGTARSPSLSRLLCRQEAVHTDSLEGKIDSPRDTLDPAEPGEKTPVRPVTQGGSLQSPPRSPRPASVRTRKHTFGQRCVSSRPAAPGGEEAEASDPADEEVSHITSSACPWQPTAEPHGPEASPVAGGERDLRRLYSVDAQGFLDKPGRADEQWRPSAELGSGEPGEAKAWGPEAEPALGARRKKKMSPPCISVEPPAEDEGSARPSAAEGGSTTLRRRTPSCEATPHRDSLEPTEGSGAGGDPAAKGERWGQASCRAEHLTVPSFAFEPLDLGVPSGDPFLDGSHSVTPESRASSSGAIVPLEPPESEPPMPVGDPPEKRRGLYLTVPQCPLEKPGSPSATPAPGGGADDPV

fold change of co-precipitated amount against USP5-WT: ~2.2 fold
B1: mCherry tagged USP5-K113R mutant (enzyme, human, UniProt P45974-1 1-858, looked up)
chain: MAELSEEALLSVLPTIRVPKAGDRVHKDECAFSFDTPESEGGLYICMNTFLGFGKQYVERHFNKTGQRVYLHLRRTRRPKEEDPATGTGDPPRKKPTRLAIGVEGGFDLSEERFELDEDVKIVILPDYLEIARDGLGGLPDIVRDRVTSAVEALLSADSASRKQEVQAWDGEVRQVSKHAFSLKQLDNPARIPPCGWKCSKCDMRENLWLNLTDGSILCGRRYFDGSGGNNHAVEHYRETGYPLAVKLGTITPDGADVYSYDEDDMVLDPSLAEHLSHFGIDMLKMQKTDKTMTELEIDMNQRIGEWELIQESGVPLKPLFGPGYTGIRNLGNSCYLNSVVQVLFSIPDFQRKYVDKLEKIFQNAPTDPTQDFSTQVAKLGHGLLSGEYSKPVPESGDGERVPEQKEVQDGIAPRMFKALIGKGHPEFSTNRQQDAQEFFLHLINMVERNCRSSENPNEVFRFLVEEKIKCLATEKVKYTQRVDYIMQLPVPMDAALNKEELLEYEEKKRQAEEEKMALPELVRAQVPFSSCLEAYGAPEQVDDFWSTALQAKSVAVKTTRFASFPDYLVIQIKKFTFGLDWVPKKLDVSIEMPEELDISQLRGTGLQPGEEELPDIAPPLVTPDEPKGSLGFYGNEDEDSFCSPHFSSPTSPMLDESVIIQLVEMGFPMDACRKAVYYTGNSGAEAAMNWVMSHMDDPDFANPLILPGSSGPGSTSAAADPPPEDCVTTIVSMGFSRDQALKALRATNNSLERAVDWIFSHIDDLDAEAAMDISEGRSAADSISESVPVGPKVRDGPGKYQLFAFISHMGTSTMCGHYVCHIKKEGRWVIYNDQKVCASEKPPKDLGYIYFYQRVAS
notes: Homo sapiens ubiquitin specific peptidase 5 (USP5), open reading frame of GenBank NM_001098536 in pcDNA3.1, point mutant made by PCR; also called SUMO-resistant USP5-K113R; SUMO2/3 resistant USP5-K113R mutant; source: tsA-201 cells, transfected (lipofectamine 2000), in lysate; not shown: mCherry, N-terminal, kept
